From patent US20060216236A1 (published 2006)

Biological target: integrin αvβ3 on human tumor cells (ECV304 bladder carcinoma, M21 melanoma) (human, UniProt P06756 31-1048; P05106 27-788)
Assay: cell-based or functional assay

Chain of integrin αvβ3 on human tumor cells (ECV304 bladder carcinoma, M21 melanoma) (P06756 31-1048, chain 1 of 2): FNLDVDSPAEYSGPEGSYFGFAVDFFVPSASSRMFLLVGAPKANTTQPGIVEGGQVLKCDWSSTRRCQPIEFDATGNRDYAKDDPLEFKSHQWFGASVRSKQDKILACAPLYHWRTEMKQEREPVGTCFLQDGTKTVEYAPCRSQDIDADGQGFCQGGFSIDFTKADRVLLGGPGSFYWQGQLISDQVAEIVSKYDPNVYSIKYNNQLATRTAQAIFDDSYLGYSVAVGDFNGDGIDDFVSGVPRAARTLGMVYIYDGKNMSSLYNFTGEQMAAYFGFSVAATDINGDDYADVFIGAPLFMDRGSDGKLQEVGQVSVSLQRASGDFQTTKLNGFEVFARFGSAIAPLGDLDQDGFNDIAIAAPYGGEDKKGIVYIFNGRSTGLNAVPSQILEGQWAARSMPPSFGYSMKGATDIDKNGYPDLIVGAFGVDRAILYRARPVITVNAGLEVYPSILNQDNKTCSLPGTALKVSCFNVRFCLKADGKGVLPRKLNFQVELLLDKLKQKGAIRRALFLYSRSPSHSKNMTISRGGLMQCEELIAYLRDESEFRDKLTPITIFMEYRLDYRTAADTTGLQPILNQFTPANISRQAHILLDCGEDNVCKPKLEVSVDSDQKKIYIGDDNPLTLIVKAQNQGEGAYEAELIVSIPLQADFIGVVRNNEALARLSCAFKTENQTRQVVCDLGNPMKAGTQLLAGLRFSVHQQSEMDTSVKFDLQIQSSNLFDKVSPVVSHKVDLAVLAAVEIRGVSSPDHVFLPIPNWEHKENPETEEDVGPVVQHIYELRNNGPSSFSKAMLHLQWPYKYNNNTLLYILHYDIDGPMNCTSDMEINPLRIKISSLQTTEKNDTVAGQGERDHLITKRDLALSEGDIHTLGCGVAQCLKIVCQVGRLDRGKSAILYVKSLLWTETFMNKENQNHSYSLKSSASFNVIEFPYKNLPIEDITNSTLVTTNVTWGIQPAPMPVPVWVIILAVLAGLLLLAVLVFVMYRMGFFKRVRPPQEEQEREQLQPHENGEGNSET
Chain of integrin αvβ3 on human tumor cells (ECV304 bladder carcinoma, M21 melanoma) (P05106 27-788, chain 2 of 2): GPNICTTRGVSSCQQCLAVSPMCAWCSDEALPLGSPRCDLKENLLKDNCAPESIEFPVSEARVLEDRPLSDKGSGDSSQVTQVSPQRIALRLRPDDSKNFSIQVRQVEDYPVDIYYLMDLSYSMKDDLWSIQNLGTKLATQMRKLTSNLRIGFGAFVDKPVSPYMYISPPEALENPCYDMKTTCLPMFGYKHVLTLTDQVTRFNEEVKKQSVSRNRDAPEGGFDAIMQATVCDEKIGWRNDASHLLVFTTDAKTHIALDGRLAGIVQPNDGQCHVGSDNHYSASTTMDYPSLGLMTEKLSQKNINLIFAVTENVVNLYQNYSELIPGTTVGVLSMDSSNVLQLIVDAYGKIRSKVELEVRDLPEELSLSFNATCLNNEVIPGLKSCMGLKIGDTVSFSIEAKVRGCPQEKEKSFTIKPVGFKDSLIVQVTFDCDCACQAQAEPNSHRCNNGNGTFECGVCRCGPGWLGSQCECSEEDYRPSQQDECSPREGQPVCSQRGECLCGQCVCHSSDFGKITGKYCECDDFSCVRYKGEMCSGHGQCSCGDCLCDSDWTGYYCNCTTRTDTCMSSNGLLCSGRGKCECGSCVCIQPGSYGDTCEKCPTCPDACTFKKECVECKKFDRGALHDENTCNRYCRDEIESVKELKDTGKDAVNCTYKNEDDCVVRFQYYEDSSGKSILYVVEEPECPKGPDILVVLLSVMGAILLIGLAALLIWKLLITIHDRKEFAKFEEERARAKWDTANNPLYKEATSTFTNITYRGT

B1: Mab LM609 (anti-αvβ3) (antibody, V domains shown)
VH: EVQLVESGGGLVKPGRSLRLSCAASGFAFSSYDMSWVRQIPEKRLEWVAKVSSGGGSTYYLDTVQGRFTISRDNAKNTLYLQMSSLNSEDTAMYYCARHNYGSFAYWGQGTLVTVSA
VL: DIVLTQSPATLSVTPGDSVSLSCQASQSISNHLHWYQQKSHESPRLLIKYRSQSISGIPSRFSGSGSGTDFALSINSVETEDFGMYFCQQSGSWPHTFGGGTKLEIK
relative level of IGFBP-4 RNA (real time PCR) in M21 cells on denatured collagen type-IV: ~8 fold
relative level of TSP-1 RNA (real time PCR) in M21 cells on denatured collagen type-IV: ~8 fold
